For test [1], the target named is RseP from Enterococcus faecalis V583, without His-tag (Enterococcus faecalis V583) (UniProt Q9RPP2).
Test [2] concerns the target RseP from Enterococcus faecium P21, without His-tag (Enterococcus faecium P21) (UniProt I3U2R6).
Test [3] deals with RseP from Lactiplantibacillus plantarum WCFS1, without His-tag (Lactiplantibacillus plantarum WCFS1).
Test [4] deals with RseP from Lactococcus lactis IL1403, without His-tag (Lactococcus lactis IL1403).
Test [5] concerns the target RseP from Staphylococcus arlettae LMGT 4134, without His-tag (Staphylococcus arlettae LMGT 4134).
Test [6] deals with RseP from Staphylococcus aureus ATCC 14458, without His-tag (Staphylococcus aureus ATCC 14458).
Test [7] addresses RseP from Staphylococcus haemolyticus, without His-tag (Staphylococcus haemolyticus).
The target in test [8] is EfmRseP with substitution D372A (Enterococcus faecium P21) (UniProt I3U2R6). Kind of test: flow cytometry on cells; noninduced L. plantarum cells expressing the RseP variant, 1 μM FITC-labeled EntK1 in 100 μM triammonium citrate pH 6.5, 20 min, room temperature; median fluorescence intensity relative to cells expressing EfmRseP (rMFI), triplicate.
Test [9] concerns the target EfmRseP with substitution E19A (Enterococcus faecium P21) (UniProt I3U2R6). The description is as above.
For test [10], the target named is EfmRseP with substitution H18A (Enterococcus faecium P21) (UniProt I3U2R6). The description is as above.
Test [11] addresses EfmRseP with substitution H22A (Enterococcus faecium P21) (UniProt I3U2R6). The test is described as above.
Test [12] addresses EfmRseP with substitution N364A (Enterococcus faecium P21) (UniProt I3U2R6). The test is described as above.
Test [13] addresses EfmRseP with substitution P367A (Enterococcus faecium P21) (UniProt I3U2R6). The test is described as above.
In test [14] the target is EfmRseP with substitution P369A (Enterococcus faecium P21) (UniProt I3U2R6). The test is described as above.
Test [15] addresses EfmRseP with the triple alanine substitution of the HExxH motif (Enterococcus faecium P21) (UniProt I3U2R6). The test is described as above.
Test [16] concerns the target Fusion of EfmRseP (1–221) and LpRseP (222–425) (Enterococcus faecium P21 | Lactiplantibacillus plantarum WCFS1) (UniProt I3U2R6). The test is described as above.
Test [17] deals with Fusion of EfmRseP (1–325) and LpRseP (326–425) (Enterococcus faecium P21 | Lactiplantibacillus plantarum WCFS1) (UniProt I3U2R6). The description is as above.
Test [18] concerns the target Fusion of LpRseP (1–171, 326–425) and EfmRseP (172–325) (Lactiplantibacillus plantarum WCFS1 | Enterococcus faecium P21) (UniProt I3U2R6). The test is described as above.
Test [19] concerns the target Fusion of LpRseP (1–201, 328–425) and EfmRseP (202–327) (Lactiplantibacillus plantarum WCFS1 | Enterococcus faecium P21) (UniProt I3U2R6). The description is as above.
For test [20], the target named is RseP from Enterococcus faecium P21, C-terminal 6× His-tag (Enterococcus faecium P21) (UniProt I3U2R6). Described as above.
Test [21] deals with RseP from Lactiplantibacillus plantarum WCFS1, C-terminal 6× His-tag (Lactiplantibacillus plantarum WCFS1). The test is described as above.
Test [22] deals with Truncation of EfmRseP (1–39, 139–422) Δ40–138 (Enterococcus faecium P21) (UniProt I3U2R6). The test is described as above.

Where only a bound is given, the exact number is not on record here.

Take FITC-labeled Enterocin K1 (peptide): the MIC50 of FITC-EntK1 (growth inhibition, microtiter plate) towards L. plantarum expressing this RseP in test [1] is 0.6 µM; in test [2], 0.15 µM; in test [3], greater than 20 µM; in test [4], greater than 20 µM; in [7], greater than 20 µM. Moreover, the MIC50 of FITC-EntK1 (growth inhibition, microtiter plate) towards L. plantarum expressing this RseP; footnote: low expression may contribute in test [5] and in [6] was greater than 20 µM in each case. Besides, the rMFI % (relative median fluorescence intensity) in test [8] came out at 80.6%; in test [9] it was 65.4%; in [10], 61.6%; in [11], 59%; in test [12], 83.4%; in test [13], 89.1%. In addition, the rMFI % (relative median fluorescence intensity) was 84.4% in test [14]; 0.5% in [15]; 37.6% in test [16]; 97.6% in test [17]; 78% in test [18]; 54.8% in test [19]. For the same substance, the figures for the rMFI % (relative median fluorescence intensity) in [20], in test [21] and in test [22] were 100%, 0.41% and 7.4%, respectively.

The values are drawn from PMC9672952.
